B1: ZNF207 (parent)
chain: FPSAGQAQAAVQGPVGTDFKPLNS

Variants of: B1
Assay: protein stability index of a GFP-peptide fusion (GPS, HEK-293T) (PSI 1-6); higher = more stable
Conditions: c terminus: a fixed tail appended
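Note: lentivirally expressed fusions sorted by FACS into six bins by GFP to DsRed ratio, PSI derived from sequencing read proportions per bin multiplied by bin number.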

Row | Variant | protein stability index
1 | FPSAGQAQAAVQGPVGTSFKPLNS | 2.81
2 | FPSAGQAQAAVQGPVGTEFKPLNS | 3.63
3 | FPSAGQAQAAVQGPVGTTFKPLNS | 3.4
4 | FPSAGQAQAAVQGPVGTNFKPLNS | 3.79
5 | FPSAGQAQAAVQGPVGTPFKPLNS | 3.11
6 | FPSAGQAQAAVQGPVGTVFKPLNS | 2.61
7 | FPSAGQAQAAVQGPVGTQFKPLNS | 3.02
8 | FPSAGQAQAAVQGPVGTYFKPLNS | 2.36
9 | FPSAGQAQAAVQGPVGTDFKPLND | 4.02
10 | FPSAGQAQAAVQGPVGTDFKPLNC | 3.31
11 | FPSAGQAQAAVQGPVGTDFKPLNR | 3.15
12 | FPSAGQAQAAVQGPVGTDFKPLNF | 2.63
13 | FPSAGQAQAAVQGPVGTDFKPLNM | 3.08
14 | FPSAGQAQAAVQGPVGTDFKPLNH | 3.73
15 | FPSAGQAQAAVQGPVGTDFKFLNS | 2.81
16 | FPSAGQAQAAVQGPVGTDFKMLNS | 3.36
17 | FPSAGQAQAAVQGPVGTDFKWLNS | 2.67
18 | FPSAGQAQAAVQGPVGTDFKHLNS | 3.28
19 | FPSAGQAQAAVQGPVGTDFKCLNS | 3.29
20 | FPSAGQAQAAVQGPVGTDFKDLNS | 3.81
21 | FPSAGQAQAAVQGPVGTDFKLLNS | 2.51
22 | FPSAGQAQAAVQGPVGTDFKELNS | 3.55
23 | FPSAGQAQAAVQGPVGTDFKALNS | 3.59
24 | FPSAGQAQAAVQGPVGTDFKSLNS | 3.62

Row | Variant | protein stability index
25 | FPSAGQAQAKVQGPVGTDFKPLNS | 2.87
26 | FPSAGQAQATVQGPVGTDFKPLNS | 3.41
27 | FPSAGQAQALVQGPVGTDFKPLNS | 3.18
28 | FPSAGQAQAYVQGPVGTDFKPLNS | 2.95
29 | FPSAGQAQAFVQGPVGTDFKPLNS | 2.22
30 | FPSAGQAQANVQGPVGTDFKPLNS | 3.13
31 | FPSAGQAQASVQGPVGTDFKPLNS | 3.73
32 | FPSAGQAQAPVQGPVGTDFKPLNS | 3.25
33 | FPSAGQAQAHVQGPVGTDFKPLNS | 3.55
34 | FPSAGQAQAIVQGPVGTDFKPLNS | 3.22
35 | FPSAGQAQAAVQGPVGKDFKPLNS | 3.27
36 | FPSAGQAQAAVQGPVGRDFKPLNS | 3.19
37 | FPSAGQAQAAVQGPVGYDFKPLNS | 2.85
38 | FPSAGQAQAAVQGPVGLDFKPLNS | 2.84
39 | FPSAGQAQAAVQGPVGGDFKPLNS | 3.78
40 | FPSAGQAQAAVQGPVGHDFKPLNS | 3.26
41 | FPSAGQAQAAVQGPVGIDFKPLNS | 3.03
42 | FPSAGQAQAAVQGPVGQDFKPLNS | 4.12
43 | FPSAGQAQAAVQGPVGSDFKPLNS | 3.88
44 | FPSAGRAQAAVQGPVGTDFKPLNS | 3.01
45 | FPSAGCAQAAVQGPVGTDFKPLNS | 2.42
46 | FPSAGDAQAAVQGPVGTDFKPLNS | 4.37
47 | FPSAGNAQAAVQGPVGTDFKPLNS | 3.62
48 | FPSAGVAQAAVQGPVGTDFKPLNS | 3.41

Row | Variant | protein stability index
49 | FPSAGEAQAAVQGPVGTDFKPLNS | 4.16
50 | FPSAGIAQAAVQGPVGTDFKPLNS | 2.72
51 | FPSAGPAQAAVQGPVGTDFKPLNS | 4.23
52 | FPSAGWAQAAVQGPVGTDFKPLNS | 1.47
53 | FPSAGMAQAAVQGPVGTDFKPLNS | 2.8
54 | FPSAGKAQAAVQGPVGTDFKPLNS | 2.76
55 | FPSAGGAQAAVQGPVGTDFKPLNS | 3.65
56 | FPSAGQAQAAVPGPVGTDFKPLNS | 3.88
57 | FPSAGQAQAAVFGPVGTDFKPLNS | 2.28
58 | FPSAGQAQAAVVGPVGTDFKPLNS | 3.36
59 | FPSAGQAQAAVMGPVGTDFKPLNS | 2.83
60 | FPSAGQAQAAVLGPVGTDFKPLNS | 2.67
61 | FPSAGQAQAAVDGPVGTDFKPLNS | 3.69
62 | FPSAGQAQAAVRGPVGTDFKPLNS | 3.1
63 | FPSAGQAQAAVEGPVGTDFKPLNS | 3.18
64 | FPSAGQAQAAVNGPVGTDFKPLNS | 3.41
65 | FPSAGQAQAAVQFPVGTDFKPLNS | 2.9
66 | FPSAGQAQAAVQSPVGTDFKPLNS | 3.69
67 | FPSAGQAQAAVQCPVGTDFKPLNS | 3.4
68 | FPSAGQAQAAVQNPVGTDFKPLNS | 3.58
69 | FPSAGQAQAAVQHPVGTDFKPLNS | 3.37
70 | FPSAGQAQAAVQWPVGTDFKPLNS | 2.53
71 | FPSAGQAQAAVQVPVGTDFKPLNS | 3.23
72 | FPSAGQAQAAVQAPVGTDFKPLNS | 3.26

Row | Variant | protein stability index
73 | FPSAGQAQHAVQGPVGTDFKPLNS | 3.31
74 | FPSAGQAQPAVQGPVGTDFKPLNS | 3.53
75 | FPSAGQAQCAVQGPVGTDFKPLNS | 3.37
76 | FPSAGQAQSAVQGPVGTDFKPLNS | 3.1
77 | FPSAGQAQMAVQGPVGTDFKPLNS | 3.06
78 | FPSAGQAQAAVQGPVGTDQKPLNS | 3.97
79 | FPSAGQAQAAVQGPVGTDWKPLNS | 3.41
80 | FPSAGQAQAAVQGPVGTDAKPLNS | 3.85
81 | FPSAGQAQAAVQGPVGTDVKPLNS | 3.35
82 | FPSAGQAQAAVQGPVGTDTKPLNS | 3.55
83 | FPSAGQAQAAVQGPVGTDYKPLNS | 3.79
84 | FPSAGQAQAAVQGPVGTDNKPLNS | 4.33
85 | FPSAGQAQAAVQGPVGTDMKPLNS | 3.76
86 | FPSAGQAQAAVQGPVGTDCKPLNS | 3.49
87 | FPSAGQAQAAVQGPVGTDPKPLNS | 3.29
88 | FPSAGQAQAAVQGPVGTDSKPLNS | 4.03
89 | FPSAGQAQAAVQGPVGTDGKPLNS | 4.15
90 | FPSAGQAQAAVQGPVGTDFKPGNS | 3.25
91 | FPSAGQAQAAVQGPVGTDFKPMNS | 3.69
92 | FPSAGQAQAAVQGPVGTDFKPNNS | 4.33
93 | FPSAGQAQAAVQGPVGTDFKPPNS | 3.63
94 | FPSAGQAQAAVQGPVGTDFKPRNS | 3.89
95 | FPSAGQAQAAVQGPVGTDFKPFNS | 3.61
96 | FPSAGQAQAAVQGPVGTDFKPQNS | 2.92

Row | Variant | protein stability index
97 | FPSAGQAQAAVQGPVGTDFKPVNS | 3.86
98 | FPSAGQAQAAVQGPVGTDFWPLNS | 2.59
99 | FPSAGQAQAAVQGPVGTDFEPLNS | 3.98
100 | FPSAGQAQAAVQGPVGTDFNPLNS | 3.72
101 | FPSAGQAQAAVQGPVGTDFIPLNS | 3.34
102 | FPSAGQAQAAVQGPVGTDFRPLNS | 3.49
103 | FPSAGQAQAAVQGPVGTDFTPLNS | 3.59
104 | FPSAGQAQAAVQGPVGTDFLPLNS | 3.2
105 | FPSAGQAQAAVQGVVGTDFKPLNS | 3.32
106 | FPSAGQAQAAVQGMVGTDFKPLNS | 3.22
107 | FPSAGQAQAAVQGTVGTDFKPLNS | 3.3
108 | FPSAGQAQAAVQGHVGTDFKPLNS | 3.71
109 | FPSAGQAQAAVQGLVGTDFKPLNS | 3.04
110 | FPSAGQAQAAVQGQVGTDFKPLNS | 3.62
111 | FPSAGQAQAAVQGWVGTDFKPLNS | 1.97
112 | FPGAGQAQAAVQGPVGTDFKPLNS | 3.75
113 | FPYAGQAQAAVQGPVGTDFKPLNS | 2.34
114 | FPFAGQAQAAVQGPVGTDFKPLNS | 3.03
115 | FPNAGQAQAAVQGPVGTDFKPLNS | 3.08
116 | FPIAGQAQAAVQGPVGTDFKPLNS | 4.35
117 | FPQAGQAQAAVQGPVGTDFKPLNS | 3.81
118 | FPAAGQAQAAVQGPVGTDFKPLNS | 3.17
119 | FPTAGQAQAAVQGPVGTDFKPLNS | 4
120 | FPSAGQARAAVQGPVGTDFKPLNS | 3.47

Row | Variant | protein stability index
121 | FPSAGQAPAAVQGPVGTDFKPLNS | 3.38
122 | FPSAGQAKAAVQGPVGTDFKPLNS | 3.89
123 | FPSAGQAWAAVQGPVGTDFKPLNS | 1.89
124 | FPSAGQAVAAVQGPVGTDFKPLNS | 3.31
125 | FPSAGQAYAAVQGPVGTDFKPLNS | 1.71
126 | FPSAGQAGAAVQGPVGTDFKPLNS | 3.77
127 | FPSAGQAQAAVQGPVATDFKPLNS | 3.13
128 | FPSAGQAQAAVQGPVYTDFKPLNS | 2.9
129 | FPSAGQAQAAVQGPVVTDFKPLNS | 3.25
130 | FPSAGQAQAAVQGPVQTDFKPLNS | 3.93
131 | FPSAGQAQAAVQGPVMTDFKPLNS | 3.04
132 | FPSAGQAQAAVQGPVLTDFKPLNS | 3.21
133 | FPSAGQAQAAVQGPVWTDFKPLNS | 2.3
134 | FPSAGQMQAAVQGPVGTDFKPLNS | 2.93
135 | FPSAGQTQAAVQGPVGTDFKPLNS | 3.49
136 | FPSAGQNQAAVQGPVGTDFKPLNS | 3.94
137 | FPSAGQKQAAVQGPVGTDFKPLNS | 3.49
138 | FPSAGQYQAAVQGPVGTDFKPLNS | 1.65
139 | FPSAGQGQAAVQGPVGTDFKPLNS | 3.58
140 | FPSAGQQQAAVQGPVGTDFKPLNS | 3.5
141 | FPSAGQHQAAVQGPVGTDFKPLNS | 3.55
142 | FPSAGQSQAAVQGPVGTDFKPLNS | 3.87
143 | FPSAGQAQAALQGPVGTDFKPLNS | 3.07
144 | FPSAGQAQAAIQGPVGTDFKPLNS | 3.25

Row | Variant | protein stability index
145 | FPSAGQAQAADQGPVGTDFKPLNS | 3.68
146 | FPSAGQAQAAEQGPVGTDFKPLNS | 3.84
147 | FPSAGQAQAAHQGPVGTDFKPLNS | 3.74
148 | FPSAGQAQAAPQGPVGTDFKPLNS | 3.62
149 | FPSAGQAQAAQQGPVGTDFKPLNS | 3.72
150 | FHSAGQAQAAVQGPVGTDFKPLNS | 2.26
151 | FYSAGQAQAAVQGPVGTDFKPLNS | 3.47
152 | FRSAGQAQAAVQGPVGTDFKPLNS | 4.43
153 | FTSAGQAQAAVQGPVGTDFKPLNS | 2.17
154 | FQSAGQAQAAVQGPVGTDFKPLNS | 3.81
155 | FFSAGQAQAAVQGPVGTDFKPLNS | 3.33
156 | FKSAGQAQAAVQGPVGTDFKPLNS | 4.27
157 | FPSADQAQAAVQGPVGTDFKPLNS | 4.67
158 | FPSAAQAQAAVQGPVGTDFKPLNS | 2.44
159 | FPSANQAQAAVQGPVGTDFKPLNS | 4.08
160 | FPSASQAQAAVQGPVGTDFKPLNS | 3.3
161 | FPSALQAQAAVQGPVGTDFKPLNS | 3.19
162 | FPSAWQAQAAVQGPVGTDFKPLNS | 1.66
163 | FPSAMQAQAAVQGPVGTDFKPLNS | 3.01
164 | FPSAGQAQAAVQGPVGTDFKPLWS | 2.01
165 | FPSAGQAQAAVQGPVGTDFKPLSS | 3.25
166 | FPSAGQAQAAVQGPVGTDFKPLFS | 2.41
167 | FPSAGQAQAAVQGPVGTDFKPLES | 3.44
168 | IPSAGQAQAAVQGPVGTDFKPLNS | 4.79

Row | Variant | protein stability index
169 | QPSAGQAQAAVQGPVGTDFKPLNS | 5.11
170 | CPSAGQAQAAVQGPVGTDFKPLNS | 4.68
171 | SPSAGQAQAAVQGPVGTDFKPLNS | 5.11
172 | MPSAGQAQAAVQGPVGTDFKPLNS | 4.96
173 | FPSNGQAQAAVQGPVGTDFKPLNS | 4.08
174 | FPSYGQAQAAVQGPVGTDFKPLNS | 3.51
175 | FPSLGQAQAAVQGPVGTDFKPLNS | 4.25
176 | FPSMGQAQAAVQGPVGTDFKPLNS | 3.8
177 | FPSHGQAQAAVQGPVGTDFKPLNS | 3.71
178 | FPSKGQAQAAVQGPVGTDFKPLNS | 3.71
179 | FPSIGQAQAAVQGPVGTDFKPLNS | 4.41
180 | FPSSGQAQAAVQGPVGTDFKPLNS | 3.27
181 | FPSGGQAQAAVQGPVGTDFKPLNS | 2.98
182 | FPSAGQAQAAVQGPQGTDFKPLNS | 3.62
183 | FPSAGQAQAAVQGPRGTDFKPLNS | 3.28
184 | FPSAGQAQAAVQGPSGTDFKPLNS | 3.84
185 | FPSAGQAQAAVQGPKGTDFKPLNS | 3.58
186 | FPSAGQAQAAVQGPCGTDFKPLNS | 3.16
187 | FPSAGQAQAAVQGPGGTDFKPLNS | 3.1
188 | FPSAGQAQAAVQGPAGTDFKPLNS | 3.62
